Measurements from patent US20230183291A1 (Bicycle, published 2023).
Numbered stars: 1 amine (or outer) side, 2 acyl side, 3 side chain; on linkers, the order of the positions; unused ones are H or OH. Bridge positions count the residues as written; N and C are the ends. Square brackets hold non-standard residues; d marks the D form. Ends that are not written are not given here. TATA = O=C(CC[*:1])N1CN(C(=O)CC[*:2])CN(C(=O)CC[*:3])C1; Phe(4-Cl) = N[C@@H](Cc1ccc(Cl)cc1)C(=O)O; Hyp = O=C(O)[C@@H]1C[C@@H](O)CN1; hArg = N=C(N)NCCCC[C@H](N)C(=O)O; PYA = propargyl-acid

How the values were obtained:
[1] = molecular target: T1, Biotinylated Human ACE2, His, Avitag protein (ACROBiosystems, AC2-H82E6) (human, UniProt Q9BYF1 18-740); test: SPR single cycle kinetics, ACE2 captured on CAP chip, peptide analyte; geometric mean; † high bulk contribution observed, treat with caution
T1 construct: also called biotinylated ACE2; ACE2 protein; not shown: His tag and Avitag
Description: (§1) Binding of bicyclic peptides of the invention to Biotinylated Human ACE2, His, Avitag™ protein (ACROBiosystems, AC2-H82E6) was assessed by a SCK analysis. Experiments were performed at 25° C. on a Biacore T200 (Cytiva) running Biacore T200 Control software V2.0.1 and Evaluation software V3.0 (Cytiva). HBS-EP+ (Cytiva) was used as running buffer as well as for ligand and analyte dilutions. Biotin CAPture reagent was loaded onto a Series S Sensor CAP Chip (Cytiva) followed by loading of the ACE2 protein at a flow rate of 2 μl/min. The surface was then allowed to stabilise.
(§2) SCK data was obtained using bicyclic peptides of the invention as analytes injected at a flow rate of 30 μl/min to minimise any potential mass transfer effects. […] The association phases were monitored for 100 seconds for each of the four injections of increasing concentrations of analyte and a single dissociation phase was measured for 400 seconds following the last injection of analyte. Regeneration of the sensor chip surface was conducted using the CAP Chip standard regeneration buffer (Cytiva).
(§3) The signal from the reference channel Fc1 (no ACE2 captured) was subtracted from that of Fc2, Fc3 and Fc4 to correct for bulk effect and differences in non-specific binding to a reference surface. The signal from each blank run (Fc2-ACE2 captured but no antigen) was subtracted to correct for differences in surface stability. […]

[2] = molecular target: T1, Biotinylated Human ACE2, His, Avitag …; test: SPR multiple cycle kinetics, ACE2 captured on CAP chip, peptide analyte 6.25-100 nM; geometric mean
Description: (§4) Binding of bicyclic peptides of the invention to Biotinylated Human ACE2, His, Avitag™ protein (ACROBiosystems, AC2-H82E6) was assessed by a MCK analysis. Experiments were performed at 25° C. on a Biacore T200 (Cytiva) running Biacore T200 Control software V2.0.1 and Evaluation software V3.0 (Cytiva). HBS-EP+(Cytiva) was used as running buffer as well as for ligand and analyte dilutions. Biotin CAPture reagent was loaded onto a Series S Sensor CAP Chip (Cytiva) followed by loading of biotinylated ACE2 at a flow rate of 2 μl/min. The surface was then allowed to stabilise.
MCK data was obtained using bicyclic peptides of the invention as analytes injected at a flow rate of 30 μl/min to minimise any potential mass transfer effects. A five point, two-fold dilution range from 6.25 nM to 100 nM of analyte was prepared in running buffer. For each concentration, the association phases were monitored for 250 seconds and the dissociation phase was measured for 450 seconds. Regeneration of the sensor chip surface was conducted between cycles using the CAP Chip standard regeneration buffer (Cytiva). Multiple repeats of a blank and of Bicycle were programmed into the kinetic run in order to check the stability of both the surface and analyte over the kinetic cycles.
(§5) The signal from the reference channel Fc1 (no ACE2 captured) was subtracted from that of Fc2, Fc3 and Fc4 to correct for bulk effect and differences in non-specific binding to a reference surface. The signal from each blank run (Fc2-ACE2 captured but no antigen) was subtracted to correct for differences in surface stability. The double referenced sensorgrams were fitted with the Langmuir (1:1) binding model (Equation 1a above) where the closeness of fit of the data to the model is evaluated using the Chi square value which describes the deviation between the experimental and fitted (observed and expected) curves (Equation 1 b above).

[3] = molecular target: T1, Biotinylated Human ACE2, His, Avitag …; test: SPR single cycle kinetics, ACE2 captured on CAP chip, peptide analyte; geometric mean; * Rmax set to 10
Description: as §1, §2
as §5, with “below)” for “above)”, “1b below).” for “1 b above).”

[4] = molecular target: T1, Biotinylated Human ACE2, His, Avitag …; test: SPR multiple cycle kinetics, biotinylated ACE2 captured on CAP chip, peptide as analyte
Description: as §4
MCK data was obtained using bicyclic peptides of the invention as analytes injected at a flow rate of 30 μl/min to minimise any potential mass transfer effects. […] For each concentration, the association phases were monitored for 250 seconds and the dissociation phase was measured for 450 seconds. […]
as §5, with “The signal from each blank run (Fc2-ACE2 captured but no antigen) was subtracted to correct for differences in surface stability.” left out

[5] = molecular target: T1, Biotinylated Human ACE2, His, Avitag …; test: SPR single cycle kinetics, biotinylated ACE2 captured on CAP chip, peptide as analyte
Description: as §1, §2, §3

T1 sequence (Q9BYF1 18-740 limits assumed): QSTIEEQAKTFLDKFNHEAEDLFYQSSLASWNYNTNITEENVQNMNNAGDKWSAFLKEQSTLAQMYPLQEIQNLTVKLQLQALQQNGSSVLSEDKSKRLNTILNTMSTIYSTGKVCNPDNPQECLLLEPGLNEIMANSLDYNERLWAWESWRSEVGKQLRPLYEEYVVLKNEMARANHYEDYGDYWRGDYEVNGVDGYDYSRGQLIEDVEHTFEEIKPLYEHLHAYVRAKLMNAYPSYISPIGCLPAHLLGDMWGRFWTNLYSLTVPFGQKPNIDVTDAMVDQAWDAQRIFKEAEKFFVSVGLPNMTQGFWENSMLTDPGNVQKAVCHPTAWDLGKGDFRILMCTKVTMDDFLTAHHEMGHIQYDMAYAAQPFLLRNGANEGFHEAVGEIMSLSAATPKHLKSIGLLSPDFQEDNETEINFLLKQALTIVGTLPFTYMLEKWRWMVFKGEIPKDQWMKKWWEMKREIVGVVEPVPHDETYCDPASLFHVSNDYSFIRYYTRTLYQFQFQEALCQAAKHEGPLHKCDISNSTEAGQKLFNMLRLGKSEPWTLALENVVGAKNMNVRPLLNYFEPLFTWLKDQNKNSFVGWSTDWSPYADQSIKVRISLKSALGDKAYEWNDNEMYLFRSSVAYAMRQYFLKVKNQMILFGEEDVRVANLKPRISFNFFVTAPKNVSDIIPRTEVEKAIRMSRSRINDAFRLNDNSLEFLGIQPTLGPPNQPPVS

Binder: ACNAVLCSWARANSFCAK(PYA) (linker 2-7-16 via TATA, bicyclic peptide, TATA scaffold) [BCY17344]
- Kd [1]: 3.2 nM

Binder: Ac-CNTVLCGWA[hArg]ANSLCK(PYA) (linker 1-6-15 via TATA, bicyclic peptide, TATA scaffold) [BCY18551]
- Kd [2]: 19.5 nM
- Kd [3]: 15.4 nM

Binder: Ac-CNAVLCSWA[hArg][Hyp]NSFC (linker 1-6-15 via TATA, bicyclic peptide, TATA scaffold) [BCY19024]
- binding result [4]: no binding

Binder: ACNAVLCSWARANS[Phe(4-Cl)]CA (linker 2-7-16 via TATA, bicyclic peptide, TATA scaffold) [BCY17340]
- Kd [1]: 16.9 nM

Binder: Ac-CNDVLCSWA[hArg]ANSFC (linker 1-6-15 via TATA, bicyclic peptide, TATA scaffold) [BCY18659]
- binding result [5]: no binding

Binder: Ac-CNEVLCSWA[hArg]ANSFC (linker 1-6-15 via TATA, bicyclic peptide, TATA scaffold) [BCY18783]
- binding result [5]: no binding
